This is an account of results in patent US10702592B2, “Peptides and combination of peptides for use in immunotherapy against NHL and other cancers” (Immatics Biotechnologies GmbH, priority 2016, dated 2020).

The target of one assay is HLA-A*02:01 (Homo sapiens, UniProt P04439, D140Y/D185E/D98H/E176V/E277Q/G131W/G231S/I119V/I121R/I166T/I218V/L300P/L318F/N151K/N90K/P208A/P217A/Q86G/Q94H/R138H/R169H/T345S). In words: MHC binding assay (UV-ligand exchange, beta2m ELISA). The settings on record: binding to HLA-A*02:01, UV-ligand exchange. The essentials:
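Binding capacity is expressed as the yield of UV-mediated ligand exchange, reflecting how well each peptide stabilizes peptide-receptive MHC. Stabilized complexes are read out by anti-β2m HRP ELISA (450 nm) after streptavidin capture, with refolded MLA-001 monomer standards for quantitation.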
On the technique in general: ELISA stands for enzyme-linked immunosorbent assay.

In another assay the test system is CD8+ T cells. In words: In vitro T-cell priming immunogenicity assay (aAPC with pMHC and anti-CD28, multimer staining). Format: cell-based, human. To be noted: HLA-A*02 restricted peptides; percentage of positive wells and donors (among evaluable). The text has this:
In order to obtain information regarding the immunogenicity of the TUMAPs of the present invention, the inventors performed investigations using an in vitro T-cell priming assay based on repeated stimulations of CD8+ T cells with artificial antigen presenting cells (aAPCs) loaded with peptide/MHC complexes and anti-CD28 antibody.
In order to perform in vitro stimulations by artificial antigen presenting cells loaded with peptide-MHC complex (pMHC) and anti-CD28 antibody, the inventors first isolated CD8+ T cells from fresh HLA-A*02 leukapheresis products via positive selection using CD8 microbeads (Miltenyi Biotec, Bergisch-Gladbach, Germany) of healthy donors obtained from the University clinics Mannheim, Germany, after informed consent.
PBMCs and isolated CD8+ lymphocytes were incubated in T-cell medium (TCM) until use consisting of RPMI-Glutamax (Invitrogen, Karlsruhe, Germany) supplemented with 10% heat inactivated human AB serum (PAN-Biotech, Aidenbach, Germany), 100 U/ml Penicillin/100 μg/ml Streptomycin (Cambrex, Cologne, Germany), 1 mM sodium pyruvate (CC Pro, Oberdorla, Germany), 20 μg/ml Gentamycin (Cambrex). 2.5 ng/ml IL-7 (PromoCell, Heidelberg, Germany) and 10 U/ml IL-2 (Novartis Pharma, Nurnberg, Germany) were also added to the TCM at this step.
Generation of pMHC/anti-CD28 coated beads, T-cell stimulations and readout was performed in a highly defined in vitro system using four different pMHC molecules per stimulation condition and 8 different pMHC molecules per readout condition.
The purified co-stimulatory mouse IgG2a anti human CD28 Ab 9.3 (Jung et al., 1987) was chemically biotinylated using Sulfo-N-hydroxysuccinimidobiotin as recommended by the manufacturer (Perbio, Bonn, Germany). Beads used were 5.6 μm diameter streptavidin coated polystyrene particles (Bangs Laboratories, Illinois, USA).
800.000 beads/200 μl were coated in 96-well plates in the presence of 4×12.5 ng different biotin-pMHC, washed and 600 ng biotin anti-CD28 were added subsequently in a volume of 200 μl. Stimulations were initiated in 96-well plates by co-incubating 1×10^6 CD8+ T cells with 2×10^5 washed coated beads in 200 μl TCM supplemented with 5 ng/ml IL-12 (PromoCell) for 3 days at 37° C. Half of the medium was then exchanged by fresh TCM supplemented with 80 U/ml IL-2 and incubating was continued for 4 days at 37° C. This stimulation cycle was performed for a total of three times. For the pMHC multimer readout using 8 different pMHC molecules per condition, a two-dimensional combinatorial coding approach was used as previously described (Andersen et al., 2012) with minor modifications encompassing coupling to 5 different fluorochromes. Finally, multimeric analyses were performed by staining the cells with Live/dead near IR dye (Invitrogen, Karlsruhe, Germany), CD8-FITC antibody clone SK1 (BD, Heidelberg, Germany) and fluorescent pMHC multimers. For analysis, a BD LSRII SORP cytometer equipped with appropriate lasers and filters was used. Peptide specific cells were calculated as percentage of total CD8+ cells. Evaluation of multimeric analysis was done using the FlowJo software (Tree Star, Oregon, USA). In vitro priming of specific multimer+CD8+ lymphocytes was detected by comparing to negative control stimulations.

“17 (VIIPLLSSV; listed as Homo sapiens) [compound 17]”: in the assay with HLA-A*02:01, the “Peptide exchange (MHC class I binding score, peptide exchange yield)” value (“Peptide exchange” below) is ““+++” (≥50 = +++)”. For the same substance, the “Wells positive [%]” value in the assay on CD8+ T cells is ““++” (20% - 49% = ++)”.
In the same order, the values of “29 (ILSDVTQGL; listed as Homo sapiens) [compound 29]” are ““+++” (≥50 = +++)” and ““+” (<20% = +)”.
For “66 (KLAPIPVEL; listed as Homo sapiens) [compound 66]”, in that order: ““++++” (≥75% = ++++)” and ““++” (20% - 49% = ++)”.
Turning to “57 (LQIGDFVSV; listed as Homo sapiens) [compound 57]”, the “Peptide exchange” value with HLA-A*02:01 is ““++++” (≥75% = ++++)”. For the same substance, the “Wells positive [%]” value in the assay on CD8+ T cells was ““++++” (≥70% = ++++)”.
In the same order, the values of “26 (FLGSFIDHV; listed as Homo sapiens) [compound 26]” are ““+++” (≥50 = +++)” and ““+” (<20% = +)”.
In the same order, the values of “60 (SLLIDVITV; listed as Homo sapiens) [compound 60]” are ““+++” (≥50 = +++)” and ““+++” (50% - 69% = +++)”.
In the same order, the values of “19 (VLEAILPLV; listed as Homo sapiens) [compound 19]” are ““++++” (≥75% = ++++)” and ““+” (<20% = +)”.
Turning to “40 (FLNSVIVDL; listed as Homo sapiens) [compound 40]”, the “Peptide exchange” value with HLA-A*02:01 was ““++++” (≥75% = ++++)”. Moreover, the “Wells positive [%]” value in the assay with CD8+ T cells was ““+++” (50% - 69% = +++)”.
In the same order, the values of “62 (ALAPYLDLL; listed as Homo sapiens) [compound 62]” are ““++++” (≥75% = ++++)” and ““++” (20% - 49% = ++)”.
In the same order, the values of “30 (ILSTLDVEL; listed as Homo sapiens) [compound 30]” are ““+++” (≥50 = +++)” and ““++” (20% - 49% = ++)”.
For “5 (VLQGLTFTL; listed as Homo sapiens) [compound 5]”, in that order: ““+++” (≥50 = +++)” and ““+++” (50% - 69% = +++)”.
As for “42 (YLQDLVERA; listed as Homo sapiens) [compound 42]”, the “Peptide exchange” value with HLA-A*02:01 is listed as ““++++” (≥75% = ++++)”. Further, the “Wells positive [%]” value in the assay with CD8+ T cells is ““+++” (50% - 69% = +++)”.
In the same order, the values of “262 (LMGPVVHEV; listed as Homo sapiens) [compound 262]” are ““++++” (≥75% = ++++)” and ““++” (20% - 49% = ++)”.
In the same order, the values of “43 (ALLEGVKNV; listed as Homo sapiens) [compound 43]” are ““+++” (≥50 = +++)” and ““++” (20% - 49% = ++)”.
In the same order, the values of “52 (VLLEDVDAAFL; listed as Homo sapiens) [compound 52]” are ““++++” (≥75% = ++++)” and ““+” (<20% = +)”.
Take “13 (HLVPASWKL; listed as Homo sapiens) [compound 13]”: in the assay with HLA-A*02:01, the “Peptide exchange” value was ““+++” (≥50 = +++)”. For the same substance, the “Wells positive [%]” value in the assay with CD8+ T cells is ““+++” (50% - 69% = +++)”.
For “3 (LTIDTQYYL; listed as Homo sapiens) [compound 3]”, the “Peptide exchange” value in the assay with HLA-A*02:01 is ““+++” (≥50 = +++)”. For the same substance, the “Wells positive [%]” value with CD8+ T cells is ““+” (<20% = +)”.
In the same order, the values of “51 (SLLGNSPVL; listed as Homo sapiens) [compound 51]” are ““++++” (≥75% = ++++)” and ““+++” (50% - 69% = +++)”.
In the same order, the values of “35 (SLSSERYYL; listed as Homo sapiens) [compound 35]” are ““+++” (≥50 = +++)” and ““++++” (≥70% = ++++)”.
For “9 (FLLDLDPLL; listed as Homo sapiens) [compound 9]”, in that order: ““+++” (≥50 = +++)” and ““++” (20% - 49% = ++)”.
For the substance “61 (SLLNKDLSL; listed as Homo sapiens) [compound 61]”, the “Peptide exchange” value with HLA-A*02:01 is ““++++” (≥75% = ++++)”. Also, the “Wells positive [%]” value with CD8+ T cells is recorded as ““+” (<20% = +)”.
For “47 (GLLPKLTAL; listed as Homo sapiens) [compound 47]”, in that order: ““+++” (≥50 = +++)” and ““++” (20% - 49% = ++)”.
In the case of “253 (YSDDDVPSV; listed as Homo sapiens) [compound 253]”, the “Peptide exchange” value with HLA-A*02:01 is reported as ““++++” (≥75% = ++++)”. For the same substance, the “Wells positive [%]” value in the assay with CD8+ T cells is on record as ““+++” (50% - 69% = +++)”.
In the same order, the values of “258 (RIYPFLLMV; listed as Homo sapiens) [compound 258]” are ““+++” (≥50 = +++)” and ““++++” (≥70% = ++++)”.
As to “37 (VLGNALEGV; listed as Homo sapiens) [compound 37]”, the “Peptide exchange” value with HLA-A*02:01 is ““+++” (≥50 = +++)”. Moreover, in the assay on CD8+ T cells, the “Wells positive [%]” value is recorded as ““+” (<20% = +)”.
“2 (LLSEETPSA; listed as Homo sapiens) [compound 2]”: the “Peptide exchange” value with HLA-A*02:01 is given as ““+++” (≥50 = +++)”. Besides, the “Wells positive [%]” value with CD8+ T cells is reported as ““+” (<20% = +)”.
For “59 (RLHREVAQV; listed as Homo sapiens) [compound 59]”, in that order: ““+++” (≥50 = +++)” and ““+” (<20% = +)”.
For “254 (FLYSETWNI; listed as Homo sapiens) [compound 254]”, in that order: ““++++” (≥75% = ++++)” and ““+” (<20% = +)”.
In the same order, the values of “12 (GLLLLVPLL; listed as Homo sapiens) [compound 12]” are ““+++” (≥50 = +++)” and ““+++” (50% - 69% = +++)”.
Regarding “260 (RLDEAFDFV; listed as Homo sapiens) [compound 260]”, the “Peptide exchange” value with HLA-A*02:01 was ““++++” (≥75% = ++++)”. For the same substance, in the assay on CD8+ T cells, the “Wells positive [%]” value is on record as ““+” (<20% = +)”.
In the same order, the values of “256 (ALQETPPQV; listed as Homo sapiens) [compound 256]” are ““+++” (≥50 = +++)” and ““+” (<20% = +)”.
In the same order, the values of “44 (FIIEEQSFL; listed as Homo sapiens) [compound 44]” are ““+++” (≥50 = +++)” and ““+” (<20% = +)”.
Consider “7 (NLLGMIFSM; listed as Homo sapiens) [compound 7]”, for which the “Peptide exchange” value with HLA-A*02:01 is ““++++” (≥75% = ++++)”. For the same substance, the “Wells positive [%]” value in the assay with CD8+ T cells is given as ““++++” (≥70% = ++++)”.
For “24 (AVLGFSFRL; listed as Homo sapiens) [compound 24]”, in that order: ““+++” (≥50 = +++)” and ““++++” (≥70% = ++++)”.
In the same order, the values of “46 (FLVEEIFQT; listed as Homo sapiens) [compound 46]” are ““+++” (≥50 = +++)” and ““+” (<20% = +)”.
